Experiments:
[1] = molecular target: HBsAg of YMDD mutant virus, patient blood sample YMDD #8 (hepatitis B virus); assay: sandwich ELISA: plate coated with the antibody, patient blood, detection with sheep anti-HBsAg/peroxidase
[2] = molecular target: HBsAg of YMDD mutant virus, patient blood sample YMDD #14 (hepatitis B virus); assay: as above
[3] = molecular target: HBsAg of YMDD mutant virus, patient blood sample YMDD #9 (hepatitis B virus); assay: as above
[4] = molecular target: HBsAg of YMDD mutant virus, patient blood sample YMDD #3 (hepatitis B virus); assay: as above
[5] = molecular target: HBsAg of YMDD mutant virus, patient blood sample YMDD #10 (hepatitis B virus); assay: as above
[6] = molecular target: HBsAg of YMDD mutant virus, patient blood sample YMDD #12 (hepatitis B virus); assay: as above
[7] = molecular target: HBsAg of YMDD mutant virus, patient blood sample YMDD #11 (hepatitis B virus); assay: as above
[8] = molecular target: HBsAg of YMDD mutant virus, patient blood sample YMDD #5 (hepatitis B virus); assay: as above
[9] = molecular target: HBsAg of YMDD mutant virus, patient blood sample YMDD #6 (hepatitis B virus); assay: as above
[10] = molecular target: HBsAg of YMDD mutant virus, patient blood sample YMDD #4 (hepatitis B virus); assay: as above
[11] = molecular target: HBsAg of YMDD mutant virus, patient blood sample YMDD #13 (hepatitis B virus); assay: as above
[12] = molecular target: HBsAg of YMDD mutant virus, patient blood sample YMDD #1 (hepatitis B virus); assay: as above
[13] = molecular target: HBsAg of YMDD mutant virus, patient blood sample YMDD #7 (hepatitis B virus); assay: as above
[14] = molecular target: HBsAg mutant of patient LC 59 (liver cirrhosis) (hepatitis B virus); assay: as above
[15] = molecular target: HBsAg mutant of patient HCC 1 (hepatocellular carcinoma) (hepatitis B virus); assay: as above
[16] = molecular target: HBsAg mutant of patient HCC 22 (hepatocellular carcinoma) (hepatitis B virus); assay: as above
[17] = molecular target: HBsAg mutant of patient HCC 11 (hepatocellular carcinoma) (hepatitis B virus); assay: as above
[18] = molecular target: HBsAg mutant of patient LC 32 (liver cirrhosis) (hepatitis B virus); assay: as above
[19] = molecular target: HBsAg mutant of patient HCC 94 (hepatocellular carcinoma) (hepatitis B virus); assay: as above
[20] = molecular target: HBsAg mutant of patient CH 33 (chronic hepatitis) (hepatitis B virus); assay: as above
[21] = molecular target: HBsAg mutant of patient LC 98 (liver cirrhosis) (hepatitis B virus); assay: as above
[22] = molecular target: HBsAg mutant of patient CH 75 (chronic hepatitis) (hepatitis B virus); assay: as above
[23] = molecular target: HBsAg mutant of patient LC 53 (liver cirrhosis) (hepatitis B virus); assay: as above
[24] = molecular target: HBsAg mutant of patient CH 32 (chronic hepatitis) (hepatitis B virus); assay: as above
[25] = molecular target: HBsAg mutant of patient CH 34 (chronic hepatitis) (hepatitis B virus); assay: as above
[26] = molecular target: T1, HBsAg mutant of patient CH 15 (chronic hepatitis) (hepatitis B virus); assay: as above
T1 construct: Positions count on the S (surface) protein

[27] = molecular target: HBsAg mutant of patient CH 62 (chronic hepatitis) (hepatitis B virus); assay: as above
[28] = molecular target: G145R HBsAg mutant of patient W** (HBV recurred after liver transplantation) (hepatitis B virus); assay: sandwich ELISA: plate coated with the antibody (immobilized antibody rHBIG), patient blood, detection with sheep anti-HBsAg/peroxidase
[29] = molecular target: G145R HBsAg mutant of patient L** (HBV recurred after liver transplantation) (hepatitis B virus); assay: as above
[30] = molecular target: G145R HBsAg mutant of patient C** (HBV recurred after liver transplantation) (hepatitis B virus); assay: as above
[31] = molecular target: T2, G145R HBsAg mutant of patient S** (HBV recurred after liver transplantation) (hepatitis B virus); assay: as above
T2 construct: Position 145 of the HBV surface protein

[32] = molecular target: G145R HBsAg mutant of patient B** (HBV recurred after liver transplantation) (hepatitis B virus); assay: as above

B1: the antibody of the present invention comprising a heavy-chain variable region having amino acid sequence of SEQ ID NO: 2 and a light-chain variable region … (antibody, V domains shown)
VH: EVQLVESGGGLVKPGGSLRLSCSASGFSLTKYKMTWVRQAPGKGLEWVSSISSTSRDIDYADSVKGRFTISRDNAKNSLFLQMSSLRVDDTAVYYCTRDGWLWGWDVRSNYYYNALDVWGQGTTVTVSS
VL: DIVVTQSPSSLSASVGDRVTITCRASQGIYNSIAWYQQKPGKAPKLLLYSTSTLLSGVPSRFSGSGSGTDYTLTITNLQPEDFATYYCQQYFVTPETFGQGTKLEIKR
notes: Captured with goat anti-human IgG (Fc specific) agarose and compared with a human IgG1 isotype control, so a human IgG; also called rHBIG
A450 [1]: 1.14 A450
A450 [2]: 0.815 A450
A450 [3]: 0.834 A450
A450 [4]: 0.957 A450
A450 [5]: 1.13 A450
A450 [6]: 0.876 A450
A450 [7]: 0.786 A450
A450 [8]: 0.356 A450
A450 [9]: 1.04 A450
A450 [10]: 1.02 A450
A450 [11]: 1.07 A450
A450 [12]: 1.16 A450
A450 [13]: 1.1 A450
ELISA [14]: 3.63
ELISA [15]: 3.61
ELISA [16]: 3.52
ELISA [17]: 3.36
ELISA [18]: 2.73
ELISA [19]: 3.56
ELISA [20]: 2.83
ELISA [21]: 3.55
ELISA [22]: 2.93
ELISA [23]: 3.5
ELISA [24]: 2.95
ELISA [25]: 1.37
ELISA [26]: 3.06
ELISA [27]: 3.08
ELISA signal (name and unit not given) [28]: 2.66
ELISA signal (name and unit not given) [29]: 2.72
ELISA signal (name and unit not given) [30]: 2.47
ELISA signal (name and unit not given) [31]: 2.53
ELISA signal (name and unit not given) [32]: 3.08
